Data published in patent US20080227700A1, “Compositions and Methods for Treatment of Protein Misfolding and Protein Aggregation Diseases” (priority 2004, published 2008).

What was measured:
amyloid beta (1-42) = amyloid beta (1-42) (Homo sapiens, UniProt P05067); assay: Cu+++-induced aggregation of amyloid-beta (1-42) in vitro, light scattering; assay type: biochemical; details: 100 mM Cu+++, 360 nm; for preventing the Cu+++-induced aggregation of amyloid-beta: 1:1 and 1:10 molar ratio of amyloid-beta to peptide; for preventing the Cu+++ induced aggregation of amyloid-beta: 10:1 molar ratio of amyloid-beta to peptide
Method: In vitro assays were also performed to measure the ability of the human αB crystallin derived peptides identified in Example 1 to inhibit aggregation of Cu^+++-induced amyloid beta (1-42) aggregation. Aggregation assays were performed using routine procedures, in the presence or absence of a synthesized peptide identified in Example 1, in the presence of 100 mM Cu^+++. Aggregation was measured spectrophotometrically as light scattering at a wavelength of 360 nm. Aggregated amyloid-beta was assigned a value of 100% aggregation and used to normalize aggregation in the presence of synthesize peptides.
Aggregation was measured spectrophotometrically as light scattering at a wavelength of 360 nm. Aggregated amyloid-beta was assigned a value of 100% aggregation and used to normalize aggregation in the presence of synthesize peptides. Aggregation was plotted as a bar graph with the standard error for duplicate experiments. The 1st vertical bar is the scattering measured for aggregated amyloid-beta (100% aggregation) in the presence of 100 mM Cu^+++. The 2nd-4th vertical bars is the scattering from amyloid-beta in the presence of wild type recombinant human αB crystallin. The 5th-13th vertical bars are the scattering of amyloid-beta in the presence of the synthetic peptides, DRFSVNLDVKHFS or LTITSSLSDGV or HGKHEERQDE at selected concentrations. A prefix of 10× represents a 10:1 molar concentration of amyloid-beta to either wild type αB crystallin or its peptides. A prefix of 1X represents a 1:1 molar concentration of amyloid-beta to either wt αB crystallin or its peptides. A prefix of 0.1× represents a 1:10 molar concentration of amyloid-beta to either wt αB crystallin or its peptides.

βH crystallin = assay: Chaperone assay, thermal aggregation of βH crystallin; assay type: biochemical; details: 50:1 molar ratio of peptide:βH crystallin; 50° C., sixty minutes; light scattering λ=340 nm; no peptide = 0% protection
Method: (§1) The chaperone activity of the peptides was measured as their ability to protect against the thermal aggregation of three chaperone target proteins βH crystallin, ADH and CS in chaperone assays performed at 50° C. (FIG. 19). A non-interactive αB crystallin sequence 111HGKHEERQDE120 was used as the negative control in the chaperone assays (FIG. 19). Based on near and far UVCD, the three target proteins unfolded in the order: CS>>>ADH>>βH crystallin when they were heated at 50° C. for sixty minutes (FIGS. 15 and 16). The thermal aggregation of βH crystallin, ADH and CS was measured as light scattering at λ=340 nm in the presence and absence of each peptide. The chaperone activity of each peptide was calculated as percent protection in which the aggregation of each target protein in the absence of any peptides was set at 0% protection (FIG. 19). The interactive peptides 73DRFSVNLDVKHFS85 and 131LTITSSLSDGV141 were effective inhibitors of aggregation of all three chaperone target proteins.
(§2) A (top left): thermal aggregation of chaperone target proteins βH crystallin, ADH and CS in the absence of peptides was measured as light scattering at λ=340 nm. Each target protein was heated at 50° C. for sixty minutes in the absence or presence of one of the peptides. […] The chaperone activity of each peptide was calculated as percent protection in which the aggregation of each target protein in the absence of any peptides was set at 0% protection. The ability of the 73DRFSVNLDVKHFS85, 131LTITSSLSDGV141 and 111HGKHEERQDE120 to protect against the thermal aggregation of βH crystallin (B: top right), ADH (C: bottom left) and CS (D: bottom right) were tested in vitro (vertical bars). […] A 10:1 molar ratio of peptide:target protein was sufficient in conferring significant protection against the aggregation of CS by 73DRFSVNLDVKHFS85 and 131LTITSSLSDGV141.

ADH = molecular target: T1, ADH (Equus caballus, UniProt P00327); assay: Chaperone assay, thermal aggregation of ADH; assay type: biochemical; details: 50:1 molar ratio of peptide:ADH; 50° C., sixty minutes; light scattering λ=340 nm; no peptide = 0% protection
T1 construct: purchased
Method: as §1, §2

Aβ = Aβ (Homo sapiens, UniProt P05067); assay: Aβ ThioflavinT fluorescence (fibrillization of Aβ); assay type: biochemical; details: 1:10 Aβ:peptide; for effect on the fibrillization of Aβ: ThioflavinT fluorescence after 72 hrs, comparison among αB crystallin and five peptides
Method: Aβ Thioflaviin T fluorescence. Aβ fibrils were grown in the presence and absence of αB crystallin and peptides in conditions similar to that previously described for the presence of αB crystallin. Bakthisaran et al., Biochem J, 2005. Peptides were dissolved to 9.1 mM in trifluorethanol (TFE) and diluted to 0.91 mM stock solutions in 50 mM PBS, 100 mM NaCl, pH 7.4. 3.5 mg of ThioflavinT was dissolved in 100 μl of 50 mM Glycine pH 8.5. A stock solution of 1 mg/ml (0.22 mM) Aβ was prepared. 20 μl Aβ, 50 μl chaperone, 2 μl ThioflavinT was mixed with 28 μl 50 mM PBS, 100 mM NaCl, pH 7.4. Fluorescence was read using a Beckman Coultier DTX 880 multimode detector. Samples were heated at 50° C. for 72 hours and fluorescence was read again.
(§3) The fibrillization of Aβ was measured as fluorescence of the fluorescent dye ThioflavinT from solutions containing 1:10 monomeric molar ratio of Aβ:peptide. In the absence of Aβfibrils, ThioflavinT had little or no fluorescence. The fluorescence of the ThioflavinT bound to Aβ fibrils in the absence of any other molecule after 72 hrs was set to 100%. […] Fibril formation=ΔfluorescenceAβ (with chaperone)*100/ΔfluorescenceAβ (without chaperone).

βL crystallin = assay: Chaperone assay, thermal aggregation of βL crystallin; assay type: biochemical; details: light scattering at λ=340 nm; 1:10 target protein:peptide; comparison among five peptides
Method: Chaperone Assays. Chaperone assays of the five peptides were performed using previously established methods with minor modifications. Muchowski et al., J Mol Biol 289: 397-411, 1999. A 1:1 monomeric molar ratio of chaperone: target protein was determined to be the optimum ratio and all subsequent chaperone assays of the β3 mutants were performed in triplicate and at a 1:1 monomeric molar ratio of chaperone: target protein in a 96-well ELISA micro-titer plate. […] of the chaperone and βL crystallin were mixed in a total volume of 200 μL buffer (5 mM PBS, pH 7.0). Light scattering at λ=340 nm was measured using a Multiskan MCC/340 plate reader before heating (time=0). After the first reading, the plate was heated at 50° C. and readings were taken at fifteen minute intervals for one hour.
The ability of the peptides to suppress the thermal aggregation of βL crystallin was measured spectrophotometrically as light scattering at λ=340 nm from solutions containing 1:10 monomeric molar ratio of target protein: peptide.

[1] = as provided by manufacturer (Mimotopes); cited from earlier work
CS = molecular target: T2, CS (Sus scrofa, UniProt P00889); assay: Chaperone assay, thermal aggregation of CS; assay type: biochemical; details: 10:1 molar ratio of peptide:CS; 50° C., sixty minutes; light scattering λ=340 nm; no peptide = 0% protection
T2 construct: purchased
T2 sequence (P00889 28-464): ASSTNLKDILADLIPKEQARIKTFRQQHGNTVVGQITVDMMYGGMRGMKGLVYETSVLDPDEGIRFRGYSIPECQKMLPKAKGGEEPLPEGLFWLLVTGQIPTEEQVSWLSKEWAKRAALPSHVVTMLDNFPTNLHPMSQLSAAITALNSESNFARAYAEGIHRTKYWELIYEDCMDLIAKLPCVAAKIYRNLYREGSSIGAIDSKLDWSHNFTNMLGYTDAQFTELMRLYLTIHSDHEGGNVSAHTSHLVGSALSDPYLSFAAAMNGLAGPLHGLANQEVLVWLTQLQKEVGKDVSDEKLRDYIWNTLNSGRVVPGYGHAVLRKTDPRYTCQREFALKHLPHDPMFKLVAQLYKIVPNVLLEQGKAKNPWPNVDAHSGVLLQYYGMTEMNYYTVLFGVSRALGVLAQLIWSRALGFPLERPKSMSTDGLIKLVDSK
Method: as §1
A (top left): thermal aggregation of chaperone target proteins βH crystallin, ADH and CS in the absence of peptides was measured as light scattering at λ=340 nm. […] The chaperone activity of each peptide was calculated as percent protection in which the aggregation of each target protein in the absence of any peptides was set at 0% protection. […]

γD crystallin = molecular target: T3, γD crystallin (Homo sapiens, UniProt P07320); assay: γD crystallin ThioflavinT fluorescence (fibrillization of γD crystallin); assay type: biochemical; details: ThioflavinT; 50° C. for 72 hours; 1:1 γD crystallin:peptide; no chaperone 888,803,840
T3 sequence (P07320 1-174): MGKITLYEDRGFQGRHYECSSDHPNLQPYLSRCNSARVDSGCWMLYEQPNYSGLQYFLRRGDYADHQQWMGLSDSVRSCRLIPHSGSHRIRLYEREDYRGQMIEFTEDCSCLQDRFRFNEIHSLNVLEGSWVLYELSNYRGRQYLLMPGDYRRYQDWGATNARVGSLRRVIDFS
Method: γD crystallin Thioflaviin T fluorescence. γD crystallin fibrils were formed in a similar way to that of γ crystalline. Meehan et al., J Biol Chem 279: 3413-3419, 2004. Peptides were dissolved to […] IN tfe AND DILUTED to 0.91 mM stock solutions in 10% TFE, pH 2.0.
3.5 mg of ThioflavinT was dissolved in 100 μL of 50 mM Glycine pH 8.5. A stock solution of 1 mg/ml (0.22 mM) Aβ was prepared. 20 μl Aβ, 5 μl chaperone, 2 μl ThioflavinT was mixed with 73 μL 10% TFE, pH 2.0. Fluorescence was read using a Beckman Coultier DTX 880 multimode detector. Samples were heated at 50° C. for 72 hours and fluorescence was read again.
as §3, with “γD crystallin” for “Aβ”, “1:1” for “1:10”, “γD crystallin:peptide.” for “Aβ:peptide.”, “fibrils” for “Aβfibrils,”, “formation=ΔfluorescenceγD crystallin” for “formation=ΔfluorescenceAβ”, “chaperone)*100/ΔfluorescenceγD crystallin” for “chaperone)*100/ΔfluorescenceAβ”

T1 sequence (P00327 whole entry): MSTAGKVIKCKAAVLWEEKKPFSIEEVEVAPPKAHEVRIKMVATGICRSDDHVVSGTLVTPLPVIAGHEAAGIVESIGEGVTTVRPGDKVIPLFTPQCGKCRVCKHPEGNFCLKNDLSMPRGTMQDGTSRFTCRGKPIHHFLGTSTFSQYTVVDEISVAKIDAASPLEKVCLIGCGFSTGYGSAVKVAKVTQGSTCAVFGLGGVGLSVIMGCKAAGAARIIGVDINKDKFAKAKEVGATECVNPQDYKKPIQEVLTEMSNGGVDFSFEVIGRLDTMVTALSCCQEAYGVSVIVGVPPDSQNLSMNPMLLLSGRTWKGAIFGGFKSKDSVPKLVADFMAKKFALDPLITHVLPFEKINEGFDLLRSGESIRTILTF

| Sequence | preventing the Cu+++-induced aggregation of amyloid-beta (amyloid beta (1-42)) | preventing the Cu+++ induced aggregation of amyloid-beta (amyloid beta (1-42)) | percent protection against thermal aggregation of βH crystallin (βH crystallin) | percent protection against thermal aggregation of ADH (ADH) | effect on the fibrillization of Aβ (Aβ) | effect on the thermal aggregation of βL crystallin (chaperone activity) (βL crystallin) | Hydrophobicity [1] | percent protection against thermal aggregation of CS (CS) | Δfluorescence (Aβ) (Aβ; ThioflavinT, 50° C. for 72 hours, no chaperone 1,324,974,048) | Δfluorescence (γD crystallin) (γD crystallin) |
| --- | --- | --- | --- | --- | --- | --- | --- | --- | --- | --- |
| DRFSVNLDVKHFS | equally effective | less effective | approximately 30% | approximately 30% | strongest effect | slightly lower than the HG peptide |  |  |  |  |
| HFSPEELK [Peptide 42] |  |  |  |  |  |  | 0.25 |  |  |  |
| HGKHEERQDE | equally effective | less effective | No protection | No protection | weakest effect | strongest effect |  | partial protection |  |  |
| LTITSSLSDGV | equally effective | less effective | approximately 30% | approximately 30% |  | slightly lower than the HG peptide |  |  | 352,301,312 | 675,352,992 |
